# Source: patent publication US20260234592
# Tested on: MBP5-TEV-paramyosin ΔSal (maltose binding protein domain and a paramyosin fragment linked by a TEV protease recognition sequence)
substance,measurement,value
"commercially available TEV protease (New England Biolabs, Inc. Catalog #P8112S)","cleavage of the substrate, 4° C., 1 hour",the commercially available enzyme only produced 62% cleavage in the same time
same,"cleavage of the substrate, 4° C., 3 hours","the commercial enzyme cleaved only 76% and 83% of the substrate at these times, respectively"
same,"cleavage of the substrate, 4° C., 5 hours","the commercial enzyme cleaved only 76% and 83% of the substrate at these times, respectively"
